Test results as given in patent US20250171520A1.

Target: human CD63 (human) (UniProt P08962)
Assay: flow cytometry, HEK293 cells endogenously expressing human CD63

human CD63 (human), sequence (P08962 2-238 limits assumed): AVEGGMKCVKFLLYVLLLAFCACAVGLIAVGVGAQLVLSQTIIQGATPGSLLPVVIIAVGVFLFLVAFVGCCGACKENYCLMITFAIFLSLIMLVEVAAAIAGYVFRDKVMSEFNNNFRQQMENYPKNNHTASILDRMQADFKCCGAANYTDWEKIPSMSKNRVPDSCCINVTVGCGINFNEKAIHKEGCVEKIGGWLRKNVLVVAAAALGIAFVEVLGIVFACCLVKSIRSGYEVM

Substance | HEK293 (S/N), MFI of antibody over wells with no antibody
Isotype Control 2 (antibody) | 1.5
Isotype Control 1 (antibody) | 1.4
